Laboratory results reported in patent WO2021228904A1 (dated 2021).
Substitutions are numbered along the chain they refer to.

B1: 002_P1D6 (antibody, V domains shown)
VH: EVQLLESGAEVKKPGESLKISCKGSGYSFTSYWIGWVRQMPGKGLEWMGIIYPGDSDTRYSPSFQGQVTISADKSISTAYLQWSSLKASDTAMYYCARHMRPSIAARPGYQYYMDVWGKGTRVTVSS
VL: not shown
B2: SEQ ID NOs: 573/577 (HCVR/LCVR) (antibody, V domains shown)
VH: QVQLQESGPGLVKPSETLSLTCTASGGSISSSSYYWGWIRQPPGKGLEWIGSIYYSGSTYYNPSLKSRVTISVDTSKNQFSLKLSSVTAADTAVYYCARHPSGLYQLLNWGQGTLVTVSS
VL: AIRMTQSPSSLSASVGDRVTITCQASQDISNYLNWYQQKPGKAPKLLIYDASNLETGVPSRFSGSGSGTDFTFTISSLQPEDIATYYCQQYDNLLSLTFGGGTKVEIK
B3: SEQ ID NOs: 453/457 (HCVR/LCVR) (antibody, V domains shown)
VH: EVQLVESGVEVKKPGASVKVSCKAFGYTFTGQDMHWVRQAPGQGLEWMGWINPSSAGTNYAQKFQGRVTMTRDTSISTAYMELSRLRSDDTSVYYCRKMLTIFGKVNQTMLLISGAKGQWSPSLQWGQGTMVTVSS
VL: DIVMTQTPLSLSVTPGQPASISCKSGQSLLHSDGKTYLYWYLQKPGQPPQLLIYEVSNRFSGVPDRFSGSGSGTDFTLKISRVEAEDVGVYYCMQSIQLPPTFGQGTKVEIK
B4: SEQ ID NOs: 565/569 (HCVR/LCVR) (antibody, V domains shown)
VH: EVQLLESGAEVKKPGASVKISCKASGYTFTGYYMHWVRQAPGQGLEWMGWINPNSGGTNYAQKFQGRVTMTRDTSISTAYMELSRLRSDDTAVYYCARGDGDYYDSSGYYRPTLYNWLDPWGQGTRVTVSS
VL: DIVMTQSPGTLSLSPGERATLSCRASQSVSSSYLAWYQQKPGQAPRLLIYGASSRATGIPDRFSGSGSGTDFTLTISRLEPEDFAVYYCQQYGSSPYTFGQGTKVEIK
B5: SEQ ID NOs: 233/237 (HCVR/LCVR) (antibody, V domains shown)
VH: EVQLVESGGGLVQPGGSLRLSCAASGFTFSSYSMNWVRQAPGKGLEWVSYISSSSSTIYYADSVKGRFTISRDNAKNSLYLQMNSLRAEDTAVYYCAREANSDFWSGYLGYFDYWGQGTLVTVSS
VL: EIVMTQSPATLSLSPGERATLSCRASQSVSSYLAWYQQKPGQAPRLLIYDASNRATGIPARFSGSGSGTDFTLTISSLEPEDFAVYYCQQRSNWPQVTFGQGTRLEIK
B6: SEQ ID NOs: 213/209 (HCVR/LCVR) (antibody, V domains shown)
VH: EVQLVESGPGLVKPSETLSLTCTVSGGSISSYYWSWIRQPPGKRLEWIGYIYYSGSTNYNPSLKSRVTISVDTSKNQFSLKLNSVTAADTAAYYCARGFDYWGQGTRVTVSS
VL: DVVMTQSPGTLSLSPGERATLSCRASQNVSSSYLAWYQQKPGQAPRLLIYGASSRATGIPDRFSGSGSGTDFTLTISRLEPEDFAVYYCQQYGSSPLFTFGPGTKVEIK
B7: SEQ ID NOs: 389/393 (HCVR/LCVR) (antibody, V domains shown)
VH: EVQLVESGAEVKKPGSSVKVSCKASGGTFSSYAISWVRQAPGQGLEWMGGIIPIFGTANYAQKFQGRVTITTDESTSTAYMELSSLRSEDTAVYYCARGPRYCSSTSCYAGVYFDYWGQGTRVTVSS
VL: not shown
B8: COVA2-39 (antibody, V domains shown)
VH: QVQLVETGGGLIQPGGSLRLSCAASGFTVSSNYMSWVRQAPGKGLEWVSVIYTGGTTYYADSVKGRFTISRDNSKNTLYLQMNSLRAEDTAVYYCARAHVDTAMVESGAFDIWGQGTRVTVSS
VL: QSALTQPASVSGSPGQSITISCTGTSSDVGSYNLVSWYQQHPGKAPKLMIYEVTKRPSGVSNRFSGSKSGNTASLTISGLQAEDEADYYCCSYAGSSTWVFGGGTKLTVL
B9: SEQ ID NOs: 445/449 (HCVR/LCVR) (antibody, V domains shown)
VH: EVQLVESGPGLVKPSQTLSLTCTVSGGSISSGDYYWSWIRQPPGKGLEWIGYIYYSGSTYYNPSLKSRVTISVDTSKNQFSLKLSSVTAADTAVYYCARGVEDPVVPAAIPWCWFDPWGQGTRVTVSS
VL: QSVLTQPPSVSVAPGQTARITCGGNNIGSKSVHWYQQKPGQAPVLVVYDDSDRPSGIPERFSGSNSGNTATLTISRVEAGDEADYYCQVWASSSVVFGGGTKLTVL
B10: SEQ ID NOs: 533/537 (HCVR/LCVR) (antibody, V domains shown)
VH: EVQLVESGGGLVKPGGSLRLSCSASGFTFSNYNMDWVRQAPGKGLEWVSSISSSSSYIYLADSVKGRFTISRDNAKNSLYLQMNSLRAEDTAVYYCARVQKDIVVVPVALADYYYYGMDVWGQGTTVTVSS
VL: DIVMTQSPATLSVSPGERATLSCRASQSVSSNLAWYQQKPGQAPRLLIYGASTRATGIPARFSGSGSGTEFTLTISSLQPEDFAVYYCQQCYNWPPWTFGQGTRVEFK
B11: SEQ ID NOs: 397/401 (HCVR/LCVR) (antibody, V domains shown)
VH: EVQLVQSGAEVKKPGESLRISCKGSGYSFTSYWISWVRQMPGKGLEWMGRIDPSDSYTNYSPSFQGHVTISADKSISTAYLQWSSLKASDTAMYYCARPNPAGGYDSSGWVDAFDIWGQGTRVTVSS
VL: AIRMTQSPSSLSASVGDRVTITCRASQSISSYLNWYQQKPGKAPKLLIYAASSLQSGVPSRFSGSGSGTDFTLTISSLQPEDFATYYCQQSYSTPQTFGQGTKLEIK
B12: 002_P1H10 (antibody, V domains shown)
VH: QVQLVETGGGLIQPGGSLRLSCAASGFTVSSNYMSWVRQAPGKGLEWVSVIYSGGSTYYADSVKGRFTISRDNSKNTLYLQMNSLRAEDTAVYYCARDLDTMGGMDVWGQGTRVTVSS
VL: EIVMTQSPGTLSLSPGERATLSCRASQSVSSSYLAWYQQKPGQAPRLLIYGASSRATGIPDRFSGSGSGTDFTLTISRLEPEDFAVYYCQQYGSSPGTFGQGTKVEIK
B13: SEQ ID NOs: 429/433 (HCVR/LCVR) (antibody, V domains shown)
VH: EVQLVESGGGVVQPGRSLRLSCAASGFTFSSYGMHWVRQAPGKGLEWVAVIWYDGSNKYYADSVKGRFTISRDNSKNTLYLQMDSLRAEDTAMYYCAKDKAPPCSSGWYYFDYWGQGTLVTVSS
VL: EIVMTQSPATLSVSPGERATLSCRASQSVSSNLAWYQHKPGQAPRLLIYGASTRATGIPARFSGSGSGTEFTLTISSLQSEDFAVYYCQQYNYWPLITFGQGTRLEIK
B14: COVA1-16 (antibody, V domains shown)
VH: QVQLVQSGAEVKKPGASVKVSCKASGYTFTSYYMHWVRQAPGQGLEWMGIINSSGGSTSYAQKFQGRVTMTRDTSTSTVYMELSSLRSEDTAVYYCARPPRNYYDRSGYYQRAEYFQHWGQGTLVTVSS
VL: DIQLTQSPSSLSASVGDRVTITCQASQDISNYLNWYQQRPGKAPKLLIYDASNLETGVPSRFSGSGSGTDFTFTISSLQPEDIATYYCQQYDNPPLTFGGGTKLEIK
B15: COVA2-07 (antibody, V domains shown)
VH: EVQLVETGGGLIQPGGSLRLSCAASGLTVSSNYMNWVRQAPGKGLEWVSVIYSGGSTYYADSVKGRFTISRDNSKNTLYLQMNSLRAEDTAVYYCAREAYGMDVWGQGTMVTVSS
VL: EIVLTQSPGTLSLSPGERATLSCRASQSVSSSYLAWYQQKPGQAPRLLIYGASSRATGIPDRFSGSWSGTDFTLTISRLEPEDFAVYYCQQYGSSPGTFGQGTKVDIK
B16: COVA2-29 (antibody, V domains shown)
VH: EVQLVESGGGVVQPGRSLRLSCAASGFTFSSYTMHWVRQAPGKGLEWVAVISYDGSNKYYADSVKGRFTISRDNSKNTLYLQMNSLRAEDTAVYYCASLPVVPAAIGPLPAFDIWGQGTMVTVSS
VL: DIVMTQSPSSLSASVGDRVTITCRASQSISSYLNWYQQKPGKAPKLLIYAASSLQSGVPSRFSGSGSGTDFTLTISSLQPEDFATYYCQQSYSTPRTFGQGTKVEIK
B17: SEQ ID NOs: 201/205 (HCVR/LCVR) (antibody, V domains shown)
VH: QLQLQESGPGLVKPSQTLSLTCTVSGGSISSGGYYWSWIRQLPGKGLEWIGYIYYSGSTYYNPSLKSRVTISVDTSKNQFSLNLSSVTAADTAVYYCARQQLDYYDSSGCFDYWGQGTLVTVSS
VL: DIVMTQSPSFLSASVGDRVTITCRASQGISSYLAWYQQKPGKAPKLLIYAASTLQSGVPSRFSGSGSGTEFTLTISSLQPEDFATYYCQQLHSYPLTFGGGTKVDIK
B18: SEQ ID NOs: 49/53 (HCVR/LCVR) (antibody, V domains shown)
VH: QVQLVESGAEVKKPGSSVKVSCKASGGTLSSYAITWVRQAPGQGLEWVGGIIPIFGTANYAQKFQGRVTITADESTSTAYMELSSLRSEDTAVYYCARVGAYDSSGYSNDYWGQGTLVTVSS
VL: DIQLTQSPATLSLSPGERATLSCRASQSVSSYLAWYQQKPGQAPRLLIYDASNRATGIPARFSGSGSGTDFTLTISSLEPEDFAVYYCQQRSNWPPRVTFGGGTKVEIK
B19: 002_P1H2 (antibody, V domains shown)
VH: EVQLVESGAEVKKPGSSVKVSCKASGGTLSSYAISWVRQAPGQGLEWMGGIIPIFGTANYAQKFQGRVTITTDESTSTAYMELSSLRSEDTAVYYCARGPRGCSSTSCYGSYFDYWGQGTLVTVSS
VL: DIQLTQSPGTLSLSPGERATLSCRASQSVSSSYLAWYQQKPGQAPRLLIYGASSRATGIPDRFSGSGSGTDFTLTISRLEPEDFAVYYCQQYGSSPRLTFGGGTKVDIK
B20: COVA2-02 (antibody, V domains shown)
VH: VQLQQESGPGLVKPSETLSLTCTVSGGSISSSSYYWGWIRQPPGKGLEWIGSIYYSGSTYYNPSLKSRVTISVDTSKNQFSLKLSSVTAADTAVYYCARRSTSRWGYYYMDVWGKGTRVTVSS
VL: DIVMTQSPSSLSASVGDRVTITCRASQSISNYLNWYQQKPGKAPKLLLYAASDLQSGVPSRFSGSGSGTDFTLTISSLQPEDFATYYCQQSYSTHMSTFGQGTKVDIK
B21: 002_P2H1 (antibody, V domains shown)
VH: EVQLVESGGGLIQPGGSLRLSCAASGFTVSSNYMSWVRQAPGKGLEWVSVIYSGGSTYYADSVKGRFTISRDNSKNTLYLQMNSLRAEDTAVYYCASPLLLTPPDYYYYMDVWGKGTMVTVSS
VL: DVVMTQSPSSLSVSVGDRVTITCRASQGIRNDLGWYQQKPGKAPKRLIYAASSLQSGVPSRFSGSGSGTEFTLTISSLQPEDFATYYCLQHNSYLWTFGQGTKLEIK
B22: SEQ ID NOs: 337/341 (HCVR/LCVR) (antibody, V domains shown)
VH: QVQLVQSGAEVKKPGATVKISCKVSGYTFTDYYMHWVQQAPGKGLEWMGLVDPEDGETIYAEKFQGRVTITADTSTDTAYMELSSLRSEDTAVYYCASSDSSGFVGSRGFDYWGQGTRVTVSS
VL: B21 VL with V2I, V3Q, M4L, V13A, L95P, W96P, T97L, L104V
B23: SEQ ID NOs: 629/633 (HCVR/LCVR) (antibody, V domains shown)
VH: QVQLVESRAEVKKPGSSVKVSCKASGGTFSSYAISWVRQAPGQGLEWMGRIIPILGITNYAQKFQGRVTITADKSTSTAYMELSSLRSEDTAVYYCARDAPDYYDSSGPTYFDYWGQGTLVTVSS
VL: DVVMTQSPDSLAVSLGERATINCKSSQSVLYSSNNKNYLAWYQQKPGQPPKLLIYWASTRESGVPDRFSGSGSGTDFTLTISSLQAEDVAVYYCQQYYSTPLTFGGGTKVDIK
B24: COVA1-22 (antibody, V domains shown)
VH: EVQLVESGAEVKKPGASVKVSCKASGYTFTSYGISWVRQAPGQGLEWMGWISAYNGYTNSAQKLQGRVTMTTDTSTSTAYMELRSLRSDDTAVYYCARDLVDTAMVQTLDDYGMDVWGQGTMVTVSS
VL: not shown
B25: SEQ ID NOs: 153/157 (HCVR/LCVR) (antibody, V domains shown)
VH: QVQLVESGGGLVKPGGSLRLSCAASGFTFSSYSMNWVRQAPGKGLEWVSSISSSSSYIYYADSVKGRFTISRDDAKNSLFLQMNSLRAEDTAVYYCAGDQNLYCSGDSCYYHYYGMDVWGQGTVVTVSS
VL: NFMLTQPPSVSVAPGKTARITCGGNNIGSKSVHWYQQKPGQAPVLVIYYDSDRPSGIPERFSGSNSGNTATLTISRVEAGDEADYYCQVWDSSSDHWVFGGGTKLTVL
B26: SEQ ID NOs: 469/473 (HCVR/LCVR) (antibody, V domains shown)
VH: QVQLVQSGAEVKKPGESLRISCKGSGYSFTSHWISWVRQMPGKGLEWMGRIDPSDSYTNYSPSFQGHVTISADKSISTAYLQWSSLKASDTAMYYCARLKVITIFGVVRDDYGMDVWGQGTTVTVSS
VL: QSALTQPASVSGSPGQSITISCTGTSSDVGSYNLVSWYQQHPGKAPKLMIYDSSKRPSGVSNRFSGSKSGNTASLTISGLQAEDEADYYCCSYAGSVFGGGTKLTVL

Target: stabilized prefusion SARS-CoV-2 S ectodomain (SARS-CoV-2 (Wuhan-Hu-1), UniProt P0DTC2 15-1138)
Experiment: SPR

Row | Binder | Kd
1 | B1 | ≤ 1 nM
2 | B2 | ≤ 1 nM
3 | B3 | ≤ 1 nM
4 | B4 | ≤ 1 nM
5 | B5 | ≤ 1 nM
6 | B6 | ≤ 1 nM
7 | B7 | ≤ 1 nM
8 | B8 | ≤ 1 nM
9 | B9 | ≤ 1 nM
10 | B10 | ≤ 1 nM
11 | B11 | ≤ 1 nM
12 | B12 | ≤ 1 nM
13 | B13 | ≤ 1 nM
14 | B14 | ≤ 1 nM
15 | B15 | ≤ 1 nM
16 | B16 | ≤ 1 nM
17 | B17 | ≤ 1 nM
18 | B18 | ≤ 1 nM
19 | B19 | ≤ 1 nM
20 | B20 | ≤ 1 nM
21 | B21 | ≤ 1 nM
22 | B22 | ≤ 1 nM
23 | B23 | ≤ 1 nM
24 | B24 | ≤ 1 nM
25 | B25 | ≤ 1 nM
26 | B26 | ≤ 1 nM
